In article PMC12170172, “Initiation of ERAD by the bifunctional complex of Mnl1/Htm1 mannosidase and protein disulfide isomerase” (Nature Structural & Molecular Biology, 2025):
Where a chain is given by its changes, count along the chain named.

Key:
Details in all cases: both partners purified
[1] = biological target: T1, Mnl1 (C579S;C644S)–Pdi1 complex (S. cerevisiae, UniProt P38888 21-796; P17967 29-522, C579S | C644S); assay: pull-down; as a6, but the Mnl1–Pdi1 complex was pretreated with DPS to induce disulfides between the Mnl1 loop cysteines and the active-site cysteines of Pdi1
T1 construct: Mnl1 (Htm1) of S. cerevisiae with both loop cysteines substituted; Pdi1 of S. cerevisiae, untagged; also called double-cysteine mutant; source: S. cerevisiae, overexpressed, purified (anti-FLAG M2 resin, Superdex 200); not shown: FLAG, C-terminal, kept
T1 sequence (looked up) 1: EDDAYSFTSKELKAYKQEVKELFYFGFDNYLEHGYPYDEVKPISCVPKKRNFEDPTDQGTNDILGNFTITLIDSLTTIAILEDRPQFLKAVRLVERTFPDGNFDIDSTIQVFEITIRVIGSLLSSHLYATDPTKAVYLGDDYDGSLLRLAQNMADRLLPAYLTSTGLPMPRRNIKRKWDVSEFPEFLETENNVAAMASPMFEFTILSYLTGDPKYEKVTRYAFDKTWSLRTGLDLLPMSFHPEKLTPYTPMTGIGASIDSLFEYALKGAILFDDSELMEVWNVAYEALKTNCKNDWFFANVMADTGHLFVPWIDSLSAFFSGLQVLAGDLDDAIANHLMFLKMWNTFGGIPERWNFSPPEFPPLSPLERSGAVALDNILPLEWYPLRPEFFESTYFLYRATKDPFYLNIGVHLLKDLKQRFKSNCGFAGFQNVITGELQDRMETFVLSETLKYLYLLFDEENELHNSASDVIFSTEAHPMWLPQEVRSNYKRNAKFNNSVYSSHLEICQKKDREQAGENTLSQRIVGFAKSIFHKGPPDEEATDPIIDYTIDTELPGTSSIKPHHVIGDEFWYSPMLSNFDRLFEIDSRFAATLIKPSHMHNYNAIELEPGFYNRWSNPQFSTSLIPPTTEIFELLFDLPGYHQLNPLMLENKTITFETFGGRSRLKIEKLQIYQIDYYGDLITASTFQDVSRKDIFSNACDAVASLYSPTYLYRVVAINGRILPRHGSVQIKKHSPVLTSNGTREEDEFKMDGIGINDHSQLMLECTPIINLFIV
T1 sequence (looked up) 2: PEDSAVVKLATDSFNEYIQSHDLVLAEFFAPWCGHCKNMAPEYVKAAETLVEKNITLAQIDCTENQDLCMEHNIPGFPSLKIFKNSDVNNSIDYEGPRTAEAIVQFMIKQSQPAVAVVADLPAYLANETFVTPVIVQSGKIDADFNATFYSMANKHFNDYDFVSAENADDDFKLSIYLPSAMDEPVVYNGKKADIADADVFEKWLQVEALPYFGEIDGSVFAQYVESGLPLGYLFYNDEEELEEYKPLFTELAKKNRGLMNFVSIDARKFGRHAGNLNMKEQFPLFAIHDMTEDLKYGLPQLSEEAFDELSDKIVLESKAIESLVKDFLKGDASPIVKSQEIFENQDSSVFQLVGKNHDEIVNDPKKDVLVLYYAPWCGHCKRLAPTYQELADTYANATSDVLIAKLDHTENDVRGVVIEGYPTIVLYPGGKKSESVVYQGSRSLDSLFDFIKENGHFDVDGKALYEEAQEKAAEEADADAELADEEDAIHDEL

[2] = biological target: T2, Mnl1 (C579S)–Pdi1 complex (S. cerevisiae, UniProt P38888 21-796; P17967 29-522, C579S); assay: as above
T2 construct: Mnl1 (Htm1) of S. cerevisiae with a substituted loop cysteine; Pdi1 of S. cerevisiae, untagged; source: S. cerevisiae, overexpressed, purified (anti-FLAG M2 resin, Superdex 200); not shown: FLAG, C-terminal, kept
T2 sequence (looked up) 1: T1 sequence (looked up) 1 with S624C
T2 sequence (looked up) 2: T1 sequence (looked up) 2

[3] = biological target: T3, Pdi1 (protein disulfide isomerase) (S. cerevisiae, UniProt P17967 29-522); assay: cross-linking; competition: RBΔS, RBun or RBsc incubated with Mnl1–Pdi1 complex at the indicated molar ratios (tenfold excess in Fig. 6) in 25 mM HEPES pH 7.4, 150 mM NaCl, 0.1% Nonidet P-40, 2 mM CaCl2, 30 °C 30 min; then DPS 30 °C 30 min, N-ethylmaleimide; SDS-PAGE, Coomassie blue
T3 construct: Pdi1, protein disulfide isomerase of S. cerevisiae, untagged; Trx domains a, b, b′ and a′; amino acids 24–500 could be modelled; source: S. cerevisiae, overexpressed together with Mnl1–FLAG (GAL1 promoter), purified as a complex
T3 sequence (looked up): T1 sequence (looked up) 2

binding result [1]: binds | binding result [2]: binds | molar excess for half-maximal inhibition of the Mnl1–Pdi1 disulfide adduct [3]: 2 fold molar excess
B1: RNase B, completely unfolded (reduced and denatured) (enzyme, UniProt P61823 27-150, looked up)
chain: KETAAAKFERQHMDSSTSAASSSNYCNQMMKSRNLTKDRCKPVNTFVHESLADVQAVCSQKNVACKNGQTNCYQSYSTMSITDCRETGSSKYPNCAYKTTQANKHIIVACEGNPYVPVHFDASV
modifications: N-glycan; cysteines reduced; DyLight 680 (NHS ester) label in the pull-downs
notes: RNase B, reduced and denatured; also called RBun; unfolded RNase B; source: prepared from RB with 6 M guanidine hydrochloride and 100 mM DTT, denaturants removed by dialysis and a desalting column
